Test results reported in article PMC8767016, “The Bacteroidetes Aequorivita sp. and Kaistella jeonii Produce Promiscuous Esterases With PET-Hydrolyzing Activity” (Frontiers in Microbiology, 2022).

B1: PET30 (Kaistella jeonii) (protein)
chain: QCTGATVESLTNPGPYTVATLSEADGVRNGPKYAGSTIYYPTNATPPYASIAIVPGFTAAPSSVQEWGPFYASHGIVAIIIGTNSLYDQPEARALALLDALETIKQENGRATSPLIGKLDVTKLAVSGWSMGGGGAQRAAVLDNTISAVVALCPYLTSPQLNHTVPVLIFSGQSDPTAPPSQHANVHYNTTPGTTNKLLFEVKNGNHSVANSPTGGGGAVGKLALSWLKIYLEKNDCYCSVLATAIVNSTTVSSKISQSYQCNNALGVVDSKTRFNLYPNPTKDFVQVNVREMASYQLSSSTGQIVLKGIVTSSKNQIDLSKLPAGVYYLQINGETIKVIKKQ
notes: signal peptide removed, Met added; C-terminal 6xHis (pET21a), E. coli host, Ni-NTA; PorC (T9SS) domain kept

Columns and labels:
PET30ΔPorC = biological target: T1, PET30ΔPorC (Kaistella jeonii, UniProt A0A0C1F4U8); assay: pNP release at […] nm, relative activity; type: biochemical; conditions: 30°C
T1 construct: gene OA86_11720; C-terminal PorC (T9SS) sorting domain 300-366 deleted; signal peptide removed; His-tagged, E. coli host; monomer in asymmetric unit

purified protein = substrate: CCCCCC(=O)Oc1ccc([N+](=O)[O-])cc1; assay: purified protein; type: biochemical, Kaistella jeonii; conditions: 30°C, pH 8

Molecule | pNP release at 405 nm, relative activity (PET30ΔPorC) | Km (purified protein) [µM] | kcat (purified protein) [s⁻¹]
CCCCCC(=O)Oc1ccc([N+](=O)[O-])cc1 [pNP-C6] | Activity tests confirmed that it was not affected in its activities using pNP-C6 |  | 
B1 |  | 300 | 8.9
